Laboratory results from patent US20230025732A1 (INNATE PHARMA, published 2023).

Columns and labels:
[1] = biological target: T1, Human CD39-L4, also known as NTPDase5 or ENTPD5 (human, UniProt O75356 25-428); assay: ELISA on coated recombinant human CD39-L4, panel huCD39 L4; no legend on the sheet, curve is I-394 by paragraph 85
T1 construct: Recombinant protein coated in ELISA
T1 sequence: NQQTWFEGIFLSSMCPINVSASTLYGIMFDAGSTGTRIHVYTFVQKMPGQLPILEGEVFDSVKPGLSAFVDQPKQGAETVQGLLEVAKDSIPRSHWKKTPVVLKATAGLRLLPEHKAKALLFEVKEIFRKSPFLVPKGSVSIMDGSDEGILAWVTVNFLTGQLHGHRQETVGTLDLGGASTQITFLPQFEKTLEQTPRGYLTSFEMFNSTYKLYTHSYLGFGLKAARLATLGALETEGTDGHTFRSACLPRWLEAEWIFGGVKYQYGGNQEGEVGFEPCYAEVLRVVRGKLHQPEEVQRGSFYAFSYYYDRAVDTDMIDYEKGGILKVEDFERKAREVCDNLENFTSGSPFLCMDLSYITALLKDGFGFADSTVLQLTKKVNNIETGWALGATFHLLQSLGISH
Experimental: (§1) Wells were washed in TBS Tween 20, and further saturated 2H at RT in TBS Blocking buffer. Dose range concentration of primary antibody was incubated in TBS blocking buffer for 2 h at RT. Wells were washed in TBS Tween 20. […] Optical density was measured on Enspire™ at OD=450.

[2] = biological target: T2, Human CD39-L3, also known as NTPDase3 or ENTPD3 (human, UniProt O75355 44-485, limits assumed); assay: ELISA on coated recombinant human CD39-L3, panel huCD39 L3; no legend on the sheet, curve is I-394 by paragraph 85
T2 construct: Recombinant protein coated in ELISA
T2 sequence: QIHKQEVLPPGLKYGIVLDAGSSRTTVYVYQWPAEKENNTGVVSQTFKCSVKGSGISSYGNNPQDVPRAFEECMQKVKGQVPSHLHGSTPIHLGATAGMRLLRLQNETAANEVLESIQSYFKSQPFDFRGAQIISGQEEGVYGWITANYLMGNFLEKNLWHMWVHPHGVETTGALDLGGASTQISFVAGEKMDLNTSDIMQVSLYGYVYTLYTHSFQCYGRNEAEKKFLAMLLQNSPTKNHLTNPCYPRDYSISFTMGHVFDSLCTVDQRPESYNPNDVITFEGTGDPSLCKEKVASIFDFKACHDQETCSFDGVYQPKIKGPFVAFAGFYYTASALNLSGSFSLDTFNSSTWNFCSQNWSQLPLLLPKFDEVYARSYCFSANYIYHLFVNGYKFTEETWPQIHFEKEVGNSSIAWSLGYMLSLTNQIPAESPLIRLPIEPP
Experimental: as §1

[3] = biological target: T3, human CD39 expressed at the cell surface (human, UniProt P49961 1-510); assay: flow cytometry, Ramos lymphoma cells, first set of experiments; Ramos cells, first set of experiments
T3 construct: On CHO transfectants, Hek-293T transfectants, Ramos and Mino tumor cells; also called huCD39; CHO-huCD39
T3 sequence: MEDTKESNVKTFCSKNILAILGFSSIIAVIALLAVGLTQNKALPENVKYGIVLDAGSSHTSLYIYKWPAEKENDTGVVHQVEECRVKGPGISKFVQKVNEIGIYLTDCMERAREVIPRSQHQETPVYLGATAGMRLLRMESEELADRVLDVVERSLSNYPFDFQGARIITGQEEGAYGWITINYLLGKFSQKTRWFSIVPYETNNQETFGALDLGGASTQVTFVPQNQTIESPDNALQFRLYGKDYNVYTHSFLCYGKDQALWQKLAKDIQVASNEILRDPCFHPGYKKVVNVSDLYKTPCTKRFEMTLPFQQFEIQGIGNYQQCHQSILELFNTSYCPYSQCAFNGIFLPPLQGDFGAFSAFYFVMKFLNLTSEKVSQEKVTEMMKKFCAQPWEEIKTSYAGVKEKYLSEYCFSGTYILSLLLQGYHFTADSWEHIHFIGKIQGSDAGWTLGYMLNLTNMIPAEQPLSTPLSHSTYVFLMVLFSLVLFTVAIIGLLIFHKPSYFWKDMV
Experimental: Cells were incubated with various concentration of unlabeled anti-CD39 antibody from 30 μg/ml to 5×10⁻⁴ μg/ml, for 30 minutes at 4° C. After washes, cells were incubated with Goat anti-mouse H+L labeled secondary antibody for 30 min at 4° C.

[4] = biological target: T4, Human CD39-L2, also known as NTPDase6 or ENTPD6 (human, UniProt O75354 61-484, limits assumed); assay: ELISA on coated recombinant human CD39-L2, panel huCD39 L2; no legend on the sheet, curve is I-394 by paragraph 85
T4 construct: Recombinant protein coated in ELISA
T4 sequence: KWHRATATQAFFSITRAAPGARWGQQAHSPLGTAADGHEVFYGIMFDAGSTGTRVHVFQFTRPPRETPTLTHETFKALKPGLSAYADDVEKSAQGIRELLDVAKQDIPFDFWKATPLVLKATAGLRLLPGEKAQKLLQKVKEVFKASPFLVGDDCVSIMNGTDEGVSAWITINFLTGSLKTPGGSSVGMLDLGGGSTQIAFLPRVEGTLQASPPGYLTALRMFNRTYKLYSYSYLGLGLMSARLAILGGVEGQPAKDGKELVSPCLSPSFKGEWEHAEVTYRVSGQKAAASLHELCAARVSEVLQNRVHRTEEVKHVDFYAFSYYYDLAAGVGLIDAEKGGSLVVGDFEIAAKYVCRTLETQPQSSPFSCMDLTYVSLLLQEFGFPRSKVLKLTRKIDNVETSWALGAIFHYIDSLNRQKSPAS
Experimental: as §1

B1: I-394 (antibody, human IgG1, V domains shown)
VH: EVQLQQSGPELVKPGASVKMSCKASGYTFTDYNMHWVKQSHGRTLEWIGYIVPLNGGSTFNQKFKGRATLTVNTSSRTAYMELRSLTSEDSAAYYCARGGTRFAYWGQGTLVTVSA
VL: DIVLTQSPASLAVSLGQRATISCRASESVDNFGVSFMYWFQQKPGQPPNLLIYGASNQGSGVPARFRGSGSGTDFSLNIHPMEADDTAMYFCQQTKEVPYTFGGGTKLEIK
binding result [1]: no binding (tested: about 50 µg/ml) | binding result [2]: no binding (tested: about 50 µg/ml) | EC50 [3]: 0.16 µg/mL | binding result [4]: no binding (tested: about 50 µg/ml)
